The values that follow come from the DeepSol protein solubility set.

The nature of this data set: soluble on expression in E. coli; label from the status in PepcDB or PDB records.
Regarding “SELPRKANRRNSSCSSISSVSESSSPSALDESTLTKILPTDNFRGGRGFASPSPPTSLLSEPLSRMDVLSEKIWDYHNKVSQTDEMLQRKLHLRDMLYTAISPVFPLSGLYVVGSSLNGFGNNSSDMDLCLMITNKDLDQKNDAVVVLNLILSTLQYEKFVESQKLILAKVPILRINFAAPFDDITVDLNANNSVAIRNTHLLCYYSSYDWRVRPLVSVVKEWAKRKGINDANKSSFTSYSLVLMVIHFLQCGPTKVLPNLQQSYPNRFSNKVDVRTLNVTMALEEVADDIDQSLSEKTTLGELLIGFLDYYANEFNYDRDAISIRQGRRVERAALAVRPKIHSNSEGDKETPPPSSSASTSSIHNGGTPGIPMHHSISNPHFWRSQWRCVCIEEPFTNSNTAHSIYDEMVFEAIKKAFREAHGELQHNHDLDKLMECEPIKASTTNTGAAVFAATYEGERPLAQQPNTIACASLRVLNSIPVSSGPGHYHYQQQSNQNLSRPQRPGSNQGYQMNNNRGFNGNNQQQHQNRRSFNNQSSSNPGNGSTGPRSSRSNENVRDSSRQQNSQKGSSGVSVSKENVASTTGVPVDKKQQNSNRKDDGNRTKRSPMVQSPEPAKTKSEKTPMASSNVSQ”, the “soluble on expression in E. coli” value is recorded as “soluble”.

Turning to “MGSDKIHHHHHHMQGTQQSLPLAVVRGQAMTEMPQDLFIPPEALEVFLESFEGPLDLLLYLIRKQKLDVVDLPISQITAQYLEYIAMLTQARIELASDYLVMAATLAEIKSRLLLPRMVAEDEVEEDPRAQLIRQLKAYEVIKEASQKIDDLPRLERDVFQATAAPSPNIKPLVIPPDVSLFEIARAFGDVLKRIDAYEDHHVKREQLSTRERMSQILAMLNSEDFTPFERLFSVEEGRAGVVVTFLALMELVKELLVELYQTEPFSTIYVKAY”, the “soluble on expression in E. coli” value was “not soluble”.

On to “MSLSSAQQWSYVRQLQREIRRSDVLDLPLEKLPVVVFDLETSGFYPDQGDRILSIGAVKVVGLTIQEEETFYSVVHTDTVPPENILELTGLSVEELEAAPPLTSVLESFYAFIRHSTLVAHHASHEKAFMSHVTWQTMKLPFEHRVIDTSFLTKIVAPQELVTLDDCCAYYSIPVQNRHHAFEDSLMTAKLWIAAIAAAREAGEGHHHHHH”, for which the “soluble on expression in E. coli” value was “not soluble”.

For the sequence “DDFETSLTELEPLEKDAYIVRLVFAGSTTTEPIVSSLSTAYDIKINILEANIKNTKNGTVGFLVLHIPYISSVDFGKFEKELIERQVKMEVLRHG”, the “soluble on expression in E. coli” value is listed as “soluble”.

In the case of “MPEIITPIITPFTKDNRIDKEKLKIHAENLIRKGIDKLFVNGTTGLGPSLSPEEKLENLKAVYDVTNKIIFQVGGLNLDDAIRLAKLSKDFDIVGIASYAPYYYPRMSEKHLVKYFKTLCEVSPHPVYLYNYPTATGKDIDAKVAKEIGCFTGVKDTIENIIHTLDYKRLNPNMLVYSGSDMLIATVASTGLDGNVAAGSNYLPEVTVTIKKLAMERKIDEALKLQFLHDEVIEASRIFGSLSSNYVLTKYFQGYDLGYPRPPIFPLDDEEERQLIKKVEGIRAKLVELKILKE”, the “soluble on expression in E. coli” value is listed as “soluble”.

As for “MIPPSSPREDGVDGLPKEAVGAEQPPSPASTSSQESKLQKLKRSLSFKTKSLRSKSADNFFQRTNSEDMKLQAHMVAEISPSSSPLPAPGSLTSTPARAGLHPGGKAHAFHEYIFKKPTFCDVCNHMIVGTNAKHGLRCKACKMSIHHKCTDGLAPQRCMGKLPKGFRRYYSSPLLIHEQFGCIKEVMPIACGNKVDPVYETLRFGTSLAQRTKKGSSGSGSDSPHRTSTSDLVEVPEEANGPGGGYDLRKRSNSVFTYPENGTDDFRDPAKNINHQGSLSKDPLQMNTYVALYKFVPQENEDLEMRPGDIITLLEDSNEDWWKGKIQDRIGFFPANFVQRLQQNEKIFRCVRTFIGCKEQGQITLKENQICVSSEEEQDGFIRVLSGKKKGLIPLDVLENI”, the “soluble on expression in E. coli” value was “soluble”.

As for “MNLRSRLVNATERAVLFQIFKDVQNDPEKYDNAVEAICESIDYFGKFLTDSEYLTQIKPILDTQCPTKSIICFSKCLTKVSTDINTTTFRDVITMLDWLKYVVEKSLTSAICSSLKVKETDVSAVQLYREFASACSNIPEKVSNCCAKALSGEHVKYINTVKWIFKMNLVQGIQKAMLLAHDDIVTAAPFTSFYGSGGPYMKTVAEIISSGRNIDITNKDGLLVQMIEWIGSLNNFDSQWRRMMFLIFQEPTYQGIQVHESLLTTLFLISKSDQILKRCIEATDLTGTLKRVVMVKLPFQRVLKRKTIEILINFVYRTKEQFAIQLLETSVKIWSDLNYAKSAPESQERHIVRMILYLVHLFRTCSSIDWESLFLNSMDGVHCRMSMLPMYVQSGIFVNQALCKQATKHRSKTHGSDEQPPETLEENKFVSSEVGKIWFEEMTSILEHGFNSSTVKDSERVRETANEITKDDSGEEFEETNAQRLQNNKDSAAITSKNNLRLDSDDDEDFPDYQVNESEKIFKNLEIGEEPKNKVTPPAYIADAFEMLLEKEKYEVFEAAFFNITNLINRRPIGFPQIAEKLFIRILHLQNNFGTPKFKETVDEIAVACITQRPEIVPSVVRLIIAPGQGFSIKQRLLHYIHNAADGMGALDKKLEECVMAQQLRIGGPTLSIILHRTINTDYDDEDEDPHRLLVPEWRRMVDARIAANTRRIGTTREPPRAGVVNRLAQAAKYMFYPLLVLPRGENASLLGKDSDLLASLIMVASMVYVRCGVCPQIHRMSSELISYATPHRFSENAKLRTACIIAHLNVTTLLPGDLMDELFDVPALIGWFDWANSVLVNASSSQLEKDMTRQFGHSVTKHLQRYHPAVLQHQDV”, the “soluble on expression in E. coli” value is listed as “not soluble”.

Regarding “FWGVWASEPPHPVLHASHDAAGWRLRGTKAWCSGASMCTHALVTARVDEQPRLFAVDLREPGVTAGRGGWRNPGMAATDTESVTFDGVPARPVGAPDE”, the “soluble on expression in E. coli” value is reported as “not soluble”.

Take “AAEKTGKCRVVTTTGTADWSVRESFNNYLEGPIANGAAYKYHGGIEVRDGVETTGTKSAREFTWPVLGSEEGAVKLGGGVHWTGHNHYSGDDESQAPDNFILDLDFSNPTVKFDGNEGTLLVDFKSREFVDTKTVADFLTGTQAELATITFDEPIDLTQENVTVTGQTKLTATGVDVMGTFYPEGEALAPITLNLTN”: the “soluble on expression in E. coli” value is on record as “not soluble”.

As for “MGKTIAEKIFASHLVDEPFAGTKVLRLDVVMCHEITTPIAIADLMARGKDRVFDPTKIKAVIDHVTPSKDSKTATQAKMLRDWARRHGIVDFFDVGANGVCHALFPEKGFIRPGYTVIMGDSHTCTHGAFGAFAAGIGTTDLEVGILKGVCAFREPKT”, the “soluble on expression in E. coli” value is recorded as “not soluble”.

“MSLNSNHKQPIFDNVLNRKFQVNEPNRAYVSDMTYIPTHEGWLYLTVVIDLFSRKVVGWNMSSRMKADTVCDALTMAIWQRKPKAGLIVHSDRGSQYASKQYRSLLNQHGLVGSMSKKGDCWDNSVAESFFSRLKDELVHWRNYQTRREAKQDILDYMTMFYNNQRLHSSLDYLSPNQFENRYWGLMKKVAEGHHHHHH”: the “soluble on expression in E. coli” value is “soluble”.

With “MLREKAMRSWKPIALGVTLALSSQFSWAAVIETTRLVGFGEAKYPENFTHFDYVNPQAPKYGKVTFGELGTYDNFNRFASRGVAAANTAELYDPLMFSPADEIDSYYPLIASKIRYSDDFTWLEIDLNPNARFHDGKPITAQDVEFSFEKFMAEGVPQYRVYYQDVKSVKAIAERTVRIEMKQPNREQLFSLAQSTRVLPKHYWQYKNLAEPLNEPPVGSGAYQIVDFKPGQSVTYKLNPDYWAKDLPVNVGRNNFAQIQYDYYRDDTVMLEAFKAGEFDLREENQAKFWATSYTGRNFDQGLIKKEEIAHQAPASTQGFIFNTQRPVFQDVRVREALNYALDFEWMNKNLFYDQYQRTRSYFQNTEYEAQGLPNAAELAVLTPYKEQLPARVFTETYQPSVTDGSGRIRTQMREAFALLKEAGWELKNKVMTNVKTGEPLSFELLIYSPTTERIAIPLQKNLQLMGIEMKIRTVDTTQYTKRLRDRDFDMISHGFSANPYPSPNLLIVWNSNYMDSSYNSAGANHPVIDALTEQIAKSQQDTEKLRALGSALDRVLQWNFYIIPQWHLSMYRVAMWDKFSRPSVLPKYSLGLDTWWIDQEKAARLPEKRR”, the “soluble on expression in E. coli” value is recorded as “not soluble”.

As to “MGSDKIHHHHHHMVSWVRGATKSLLGCSENSRRTKGNDMAVIFKGIPSIGNGLTDDTVLWRYLDTAKFLDLLHNRTLFFCRGDRFADKYEGAFTESIKHAIEEAFRKNEINSSVAEFKTRLRERVFVNCWHQSRDDSMAMWSLYGKSSAAVAITTTVGQLRDAIKLAKLPYAINIAKVEYVKHWRDPQLVFKPYSNVFAYKLKAYDYEKEVRVIIDRFHENEDISALPDGMSAAIPLETLLRSIVVCPEAAPWFVELVGDVVHKYGVSAPVNRSKLAFDPK”, the “soluble on expression in E. coli” value is recorded as “not soluble”.

Take “MHHHHHHSSGVDLGTENLYFQSMGEVVMSQAIQPAHATARGELSAGQLLKWIDTTACLAAEKHAGVSCVTASVDDIQFEETARVGQVITIKAKVTRAFSTSMEISIKVMVQDMLTGIEKLVSVAFSTFVAKPVGKEKIHLKPVTLLTEQDHVEHNLAAERRKVRLQHEDTFNNLMKESSKFDDLIFDEEEGAVSTRGTSVQSIELVLPPHANHHGNTFGGQIMAWMETVATISASRLCWAHPFLKSVDMFKFRGPSTVGDRLVFTAIVNNTFQTCVEVGVRVEAFDCQEWAEGRGRHINSAFLIYNAADDKENLITFPRIQPISKDDFRRYRG”: the “soluble on expression in E. coli” value is reported as “soluble”.

“MGSDKIHHHHHHMKPPIQLPLGVRLRDDATFINYYPGANAAALGYVERLCEADAGWTESLIYLWGKQGVGRSHLLQAATHRFQQRGEPAVYLPLAQLLDRGVELLDYLAQYELVCIDDLHVIAGKADWEEAMFHLFNRLRDSGRRLLLAASASPRELPIKLPDLKSRLTLALVFQMRGLSDEDKLRALQLRASRRGLHLTDEVGHFILTRGARSMSALFDLLERLDQASLQAQRKLTIPFLKETLGW”: the “soluble on expression in E. coli” value is “not soluble”.

Take “MQARVKWVEGLTFLGESASGHQILMDGNSGDKAPSPMEMVLMAAGGCSAIDVVSILQKGRQDVVDCEVKLTSERREADTRLFTHINLHFIVTGRDLKDAAVARAVDLSAEKYCSVALMLEKAVNITHSYEVVAA”: the “soluble on expression in E. coli” value is “soluble”.

On to “MSLSIALIAPYESLATLCRSICQELDLDVSVHTGSMEDGVRIARNLMAEGVDFFISRGLTAQLIREQCPLPVAELEVSAFDIYLCLEPLLRSGKSIGVVGHSDILRKAKGASAALGFTIDFYATAHPGGMGHIMEAARRQGIAAIAGDAVAARTAERYGMEGVLVQNGADSVTNTLQYAVATYSYLTRQATMAGRLQTVLDRMDGGALLASPDGRMLHCNAAVRAMLEPDQGCTETSMDDLFPQLDWRAVPEGRAETVRELVTVGGSKLAVTVTGTMHDDAMDALICTFHDVRQIEQLEHSFRKSEGHHHHHH”, for which the “soluble on expression in E. coli” value is on record as “soluble”.

For “MGCAVSQESAIATVSSSSNTATTSTSSSNTSQKWATSRTSRPVTNVTQVSAIHTTSMDSGSSTVQLPSPRGSLTTAVSTSSSGAQRQMSANSERSLHTRPLSETAVILQSQAVKMSTGAGDSAVYEAVERGSLYSLDYRVYIKGPQGIVSPWHDIPLFANKDKRVYNMIVEIPRWTNAKMEMATKEPFSPIKQDEKKGVARFVHNIFPHKGYIWNYGALPQTWEDPNHVVPDTGAKGDNDPIDVIEVGSKVAGRGAVLQVKVLGTLALIDEGETDWKLVAIDVNDENADKLNDIDDVEKVYPGLLAASVEWFRNYKIPAGKPANEFAFNGEFKNREYAEKVIDETNEYWKTLIKEANPSLNTVSRVPEAVHQGTDEAAATAIGATPEHGANAPLPGDVDKWHFVQG”, the “soluble on expression in E. coli” value is “not soluble”.

Consider “MGSDKIHHHHHHMDSYFLGVSLESLKSLPRQTNHLRLGLAMWSHYHWQDSVYGSTTKQAERLARYATIFNTVEGNTSFYATPNAQTMMNWLRATPDDFRFTFKLPQTITHQKQLQHCQQELLQFFQVMSPLAEKTGLWKIQLPAHFGPENLPALAQFLNQVPQGLTYGVEVRHAAFFAKGEAERALNRLLMDKQVNRIIMDSRPLFALPPANEAIIDTHKKKPRVPVHAIATANTPVVRFIGQPDDACSCTTRAARR”, for which the “soluble on expression in E. coli” value is “not soluble”.
